Test results reported in patent US20240327505A1.

Experiments:
Test in all cases: cell-based or functional assay
[1] = biological target: SARS-CoV-2 "Alpha" UK B.1.1.7 full-length Spike protein on pseudovirus (SARS-CoV-2) (UniProt P0DTC2)
[2] = biological target: SARS-CoV-2 "Beta" SA B.1.351 full-length Spike protein on pseudovirus (SARS-CoV-2) (UniProt P0DTC2)
[3] = biological target: SARS-CoV-2 "Delta" B.1.617.2 full-length Spike protein on pseudovirus (SARS-CoV-2) (UniProt P0DTC2)
[4] = biological target: SARS-CoV-2 "Delta-plus" B.1.617.2.1 full-length Spike protein on pseudovirus (SARS-CoV-2) (UniProt P0DTC2)
[5] = biological target: SARS-CoV-2 "Epsilon" B.1.427/9 full-length Spike protein on pseudovirus (SARS-CoV-2) (UniProt P0DTC2)
[6] = biological target: SARS-CoV-2 "Gamma" Brazil P.1.B.1.1.28 full-length Spike protein on pseudovirus (SARS-CoV-2) (UniProt P0DTC2)

Substance	Pseudovirus Neturalization [1]	Pseudovirus Neturalization [2]	Pseudovirus Neturalization [3]	Pseudovirus Neturalization [4]	Pseudovirus Neturalization [5]	Pseudovirus Neturalization [6]
Anti-Nucleocapsid (Neg Control) (antibody)	> 50 µg/mL	> 50 µg/mL	> 50 µg/mL	> 50 µg/mL	> 50 µg/mL	> 50 µg/mL
CA-1 (AB-009265) (antibody)	0.209 µg/mL	> 50 µg/mL	2.19 µg/mL	41.5 µg/mL	0.33 µg/mL	> 50 µg/mL
CB-6 (AB-009264) (antibody)	0.417 µg/mL	> 50 µg/mL	0.004 µg/mL	> 50 µg/mL	0.009 µg/mL	> 50 µg/mL
COVA1-21 (AB-010159) (antibody)	> 50 µg/mL	> 50 µg/mL	> 50 µg/mL	> 50 µg/mL	> 50 µg/mL	> 50 µg/mL
CR3022 (AB-009073) (antibody)	> 50 µg/mL	> 50 µg/mL	> 50 µg/mL	> 50 µg/mL	> 50 µg/mL	> 50 µg/mL
LY-CoV555 | Bamlanivimab (AB-010160) (antibody)	0.0012 µg/mL	> 50 µg/mL	19.3 µg/mL	6.93 µg/mL	7.82 µg/mL	> 50 µg/mL
REGN10933 | Casirivimab (AB-010156) (antibody)		1.09 µg/mL	0.001 µg/mL	0.001 µg/mL	0.001 µg/mL	0.666 µg/mL
REGN10987 | Imdevimab (AB-010157) (antibody)			0.001 µg/mL	0.001 µg/mL	0.001 µg/mL	
